Drawing on publication PMC8360832, “Butyryl/Caproyl-CoA:Acetate CoA-transferase: cloning, expression and characterization of the key enzyme involved in medium-chain fatty acid biosynthesis” (Bioscience Reports, 2021), this text covers Km, kcat and kcat/Km for 1 protein.

Substrate in the data set: CCCC(=O)SCCNC(=O)CCNC(=O)[C@H](O)C(C)(C)COP(=O)(O)OP(=O)(O)OC[C@H]1O[C@@H](n2cnc3c(N)ncnc32)[C@H](O)[C@@H]1OP(=O)(O)O
Description: purified protein. The data set is classed as biochemical, Clostridium tyrobutyricum. Conditions: 200 mM sodium acetate, 100 mM potassium phosphate pH 7, 25 °C.

B1: BEY8-CoAT (BCoAT) (Clostridium tyrobutyricum DIVETGP) (protein)
chain: MSFEELYKSKVVSADEAVSHIKSGDKIVFGHACAEPQVLLNALVKNKEKYKNVELYHMIPKGETNYAEPGVEKYIHDNSFFTGKGTSEAIQEGRADFIPVFFSEIPRLFKKGYIPVDVALIEVSKPDEHGYCSFGVSNDYIHAGAECAKLVIAEVNENMPRVFGNNFIHVSDIDYIVESSRPVVEMQPSKIGDVEKAIGKYCASLVEDGSTLQLGIGAIPDAVLLFLKDKKDLGIHSEMISDGVVELVKAGVITNKKKTLHPGKIVVTFLMGTKKLYDFIDNNPEVESHPVDYVNNPTVIMKNCKMVCINSCVEIDLMGQICSESIGLKQISGVGGQIDFTRGASMAEDGKSIIAIPSTAAHGKVSRIVPFLNQGAAITTSRNDVHYVITEYGIAQLRGKTLKQRARELIK
notes: full-length, His tag (N-terminal), pET28a, E. coli BL21 (DE3), Ni-NTA; gene 1233 bp, 46 kDa
In general, Km refers to the substrate concentration at which the rate is half of its maximum. In general, kcat refers to the number of substrate molecules converted per active site and unit of time at saturation. A word on the kcat/Km: it is the turnover number divided by the Michaelis constant. For B1, the Km is 370 ± 4.1 µM, the kcat amounted to 0.232 ± 0.0117 s⁻¹ and the specificity constant (kcat/Km) worked out at 628.3 ± 3.33 M⁻¹ s⁻¹.
